Test results from patent publication US9908919B2, “Cyclic apelin derivatives for the treatment of heart failure” (priority 2013, dated 2018).
Where a SMILES comes first, the peptide text is derived from it. Bridges are numbered along the chain shown (N, C = ends). [ ]: non-standard residue; d: D form. pGlu = O=C1CC[C@@H](C(=O)O)N1; dNle = CCCC[C@@H](N)C(=O)O

T1: human APJ receptor (hAPJ) (human, UniProt P35414 1-380)
T1 sequence (looked up): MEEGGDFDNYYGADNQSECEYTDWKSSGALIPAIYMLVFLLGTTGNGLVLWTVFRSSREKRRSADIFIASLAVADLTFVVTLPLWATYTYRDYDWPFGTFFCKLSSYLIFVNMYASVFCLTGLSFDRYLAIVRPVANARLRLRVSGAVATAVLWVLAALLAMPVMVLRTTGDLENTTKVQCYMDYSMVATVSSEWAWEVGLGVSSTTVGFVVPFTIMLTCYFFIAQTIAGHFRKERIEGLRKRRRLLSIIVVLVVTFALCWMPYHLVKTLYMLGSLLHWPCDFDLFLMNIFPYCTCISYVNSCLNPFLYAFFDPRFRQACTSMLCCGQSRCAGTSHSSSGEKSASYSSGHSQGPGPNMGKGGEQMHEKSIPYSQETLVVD

B1: Example 8: pE-R-P-R-L-C*-H-K-G-P-Nle-P-C*-OH (peptide)
peptide: ERPRLCHKGPLPC
HELM: PEPTIDE1{[Glp].R.P.R.L.C.H.K.G.P.[Nle].P.C}$PEPTIDE1,PEPTIDE1,6:R3-13:R3$$$V2.0
SMILES: CCCC[C@@H]1NC(=O)[C@@H]2CCCN2C(=O)CNC(=O)[C@H](CCCCN)NC(=O)[C@H](Cc2c[nH]cn2)NC(=O)[C@@H](NC(=O)[C@H](CC(C)C)NC(=O)[C@H](CCCNC(=N)N)NC(=O)[C@@H]2CCCN2C(=O)[C@H](CCCNC(=N)N)NC(=O)[C@@H]2CCC(=O)N2)CSSC[C@@H](C(=O)O)NC(=O)[C@@H]2CCCN2C1=O
B2: Example 7: pE-R-P-R-L-(D-hC)*-H-K-C*-P-(D-Nle)-p-f-OH (peptide)
peptide: ERPRLCHKCPLPF
HELM: PEPTIDE1{[Glp].R.P.R.L.[O=C([C@@H](CCS[*:3])N[*:1])[*:2]].H.K.C.P.[CCCC[C@@H](N[*:1])C(=O)[*:2]].[dP].[dF]}$PEPTIDE1,PEPTIDE1,6:R3-9:R3$$$V2.0
SMILES: CCCC[C@@H](NC(=O)[C@@H]1CCCN1C(=O)[C@@H]1CSSCC[C@@H](NC(=O)[C@H](CC(C)C)NC(=O)[C@H](CCCNC(=N)N)NC(=O)[C@@H]2CCCN2C(=O)[C@H](CCCNC(=N)N)NC(=O)[C@@H]2CCC(=O)N2)C(=O)N[C@@H](Cc2c[nH]cn2)C(=O)N[C@@H](CCCCN)C(=O)N1)C(=O)N1CCC[C@@H]1C(=O)N[C@H](Cc1ccccc1)C(=O)O
B3: Example 2: pE-R-C*-R-L-C*-H-K-G-P-(D-Nle)-a-f-OH (Disulfide C3-C6) (peptide)
peptide: ERCRLCHKGPLAF
HELM: PEPTIDE1{[Glp].R.C.R.L.C.H.K.G.P.[CCCC[C@@H](N[*:1])C(=O)[*:2]].[dA].[dF]}$PEPTIDE1,PEPTIDE1,3:R3-6:R3$$$V2.0
SMILES: CCCC[C@@H](NC(=O)[C@@H]1CCCN1C(=O)CNC(=O)[C@H](CCCCN)NC(=O)[C@H](Cc1c[nH]cn1)NC(=O)[C@@H]1CSSC[C@H](NC(=O)[C@H](CCCNC(=N)N)NC(=O)[C@@H]2CCC(=O)N2)C(=O)N[C@@H](CCCNC(=N)N)C(=O)N[C@@H](CC(C)C)C(=O)N1)C(=O)N[C@H](C)C(=O)N[C@H](Cc1ccccc1)C(=O)O
B4: Example 6: pE-R-P-R-L-c*-H-K-C*-P-f-a-f-OH (peptide)
peptide: ERPRLCHKCPFAF
HELM: PEPTIDE1{[Glp].R.P.R.L.[dC].H.K.C.P.[dF].[dA].[dF]}$PEPTIDE1,PEPTIDE1,6:R3-9:R3$$$V2.0
SMILES: CC(C)C[C@H](NC(=O)[C@H](CCCNC(=N)N)NC(=O)[C@@H]1CCCN1C(=O)[C@H](CCCNC(=N)N)NC(=O)[C@@H]1CCC(=O)N1)C(=O)N[C@@H]1CSSC[C@@H](C(=O)N2CCC[C@H]2C(=O)N[C@H](Cc2ccccc2)C(=O)N[C@H](C)C(=O)N[C@H](Cc2ccccc2)C(=O)O)NC(=O)[C@H](CCCCN)NC(=O)[C@H](Cc2c[nH]cn2)NC1=O
B5: Example 4: pE-R-c*-R-L-C*-H-K-G-P-f-a-f-OH (Disulfide C3-C6) (peptide)
peptide: ERCRLCHKGPFAF
HELM: PEPTIDE1{[Glp].R.[dC].R.L.C.H.K.G.P.[dF].[dA].[dF]}$PEPTIDE1,PEPTIDE1,3:R3-6:R3$$$V2.0
SMILES: CC(C)C[C@@H]1NC(=O)[C@H](CCCNC(=N)N)NC(=O)[C@H](NC(=O)[C@H](CCCNC(=N)N)NC(=O)[C@@H]2CCC(=O)N2)CSSC[C@@H](C(=O)N[C@@H](Cc2c[nH]cn2)C(=O)N[C@@H](CCCCN)C(=O)NCC(=O)N2CCC[C@H]2C(=O)N[C@H](Cc2ccccc2)C(=O)N[C@H](C)C(=O)N[C@H](Cc2ccccc2)C(=O)O)NC1=O
B6: Example 1: pE-R-C*-R-L-C*-H-K-G-P-Nle-P-F-OH (Disulfide C3-C6) (peptide)
peptide: ERCRLCHKGPLPF
HELM: PEPTIDE1{[Glp].R.C.R.L.C.H.K.G.P.[Nle].P.F}$PEPTIDE1,PEPTIDE1,3:R3-6:R3$$$V2.0
SMILES: CCCC[C@H](NC(=O)[C@@H]1CCCN1C(=O)CNC(=O)[C@H](CCCCN)NC(=O)[C@H](Cc1c[nH]cn1)NC(=O)[C@@H]1CSSC[C@H](NC(=O)[C@H](CCCNC(=N)N)NC(=O)[C@@H]2CCC(=O)N2)C(=O)N[C@@H](CCCNC(=N)N)C(=O)N[C@@H](CC(C)C)C(=O)N1)C(=O)N1CCC[C@H]1C(=O)N[C@@H](Cc1ccccc1)C(=O)O
B7: Example 5: pE-R-P-R-L-C*-H-K-C*-P-Nle-P-F-OH (Disulfide C6-C9) (peptide)
peptide: ERPRLCHKCPLPF
HELM: PEPTIDE1{[Glp].R.P.R.L.C.H.K.C.P.[Nle].P.F}$PEPTIDE1,PEPTIDE1,6:R3-9:R3$$$V2.0
SMILES: CCCC[C@H](NC(=O)[C@@H]1CCCN1C(=O)[C@@H]1CSSC[C@H](NC(=O)[C@H](CC(C)C)NC(=O)[C@H](CCCNC(=N)N)NC(=O)[C@@H]2CCCN2C(=O)[C@H](CCCNC(=N)N)NC(=O)[C@@H]2CCC(=O)N2)C(=O)N[C@@H](Cc2c[nH]cn2)C(=O)N[C@@H](CCCCN)C(=O)N1)C(=O)N1CCC[C@H]1C(=O)N[C@@H](Cc1ccccc1)C(=O)O

target: T1, human APJ receptor (hAPJ); assay: cell-based or functional assay; conditions: not given

Row | hAPJ Ca^2+ Flux EC50 [nM] | Molecule
1 | 43.7 | B1
2 | 9.7 | B2
3 | 871 | [pGlu]RCRLCHKGP[dNle]-{NH‑phenethyl} (disulfide 3-6) [Example 3: pE-R-C*-R-L-C*-H-K-G-P-(D-Nle)-NH(Phenethyl) (Disulfide C3-C6)]
4 | 77 | B3
5 | 12.3 | B4
6 | 496 | B5
7 | 3.5 | B6
8 | 6.9 | B7

test system: not listed separately; assay: in vitro; conditions: rat, plasma
Procedure: The calcium flux protocol described above was followed, with the following changes. The peptides were also incubated with 5% rat plasma (Bioreclamation # [sequence]-M, Na Heparin-treated). Readings were taken at time points t0 and t24 hrs, after incubation in a 37° C. tissue culture incubator. Peptide plasma half-life in minutes was estimated by calculating the following: • 1) LN((EC50 at t0)/(EC50 at t24 hrs)), • 2) Calculate slope of value above and • 3) t112=0.693/(slope^2).

Row | half-life [min] | Molecule
9 | 4 | CCCC[C@H](NC(=O)[C@@H]1CCCN1C(=O)CNC(=O)[C@H](CCCCN)NC(=O)[C@H](Cc1c[nH]cn1)NC(=O)[C@@H]1CSSC[C@H](NC(=O)[C@H](CCCNC(=N)N)NC(=O)[C@@H]2CCC(=O)N2)C(=O)N[C@@H](CCCNC(=N)N)C(=O)N[C@@H](CC(C)C)C(=O)N1)C(=O)N1CCC[C@H]1C(=O)N[C@@H](Cc1ccccc1)C(=O)O [Example 1, pE-R-C*-R-L-C*-H-K-G-P-Nle-P-F-OH] (HELM PEPTIDE1{[Glp].R.C.R.L.C.H.K.G.P.[Nle].P.F}$PEPTIDE1,PEPTIDE1,3:R3-6:R3$$$V2.0)
10 | 225 | CCCC[C@@H](NC(=O)[C@@H]1CCCN1C(=O)CNC(=O)[C@H](CCCCN)NC(=O)[C@H](Cc1c[nH]cn1)NC(=O)[C@@H]1CSSC[C@H](NC(=O)[C@H](CCCNC(=N)N)NC(=O)[C@@H]2CCC(=O)N2)C(=O)N[C@@H](CCCNC(=N)N)C(=O)N[C@@H](CC(C)C)C(=O)N1)C(=O)N[C@H](C)C(=O)N[C@H](Cc1ccccc1)C(=O)O [Example 2, pE-R-C*-R-L-C*-H-K-G-P-(D-Nle)-a-f-OH] (HELM PEPTIDE1{[Glp].R.C.R.L.C.H.K.G.P.[CCCC[C@@H](N[*:1])C(=O)[*:2]].[dA].[dF]}$PEPTIDE1,PEPTIDE1,3:R3-6:R3$$$V2.0)
11 | 86 | CC(C)C[C@@H]1NC(=O)[C@H](CCCNC(=N)N)NC(=O)[C@H](NC(=O)[C@H](CCCNC(=N)N)NC(=O)[C@@H]2CCC(=O)N2)CSSC[C@@H](C(=O)N[C@@H](Cc2c[nH]cn2)C(=O)N[C@@H](CCCCN)C(=O)NCC(=O)N2CCC[C@H]2C(=O)N[C@H](Cc2ccccc2)C(=O)N[C@H](C)C(=O)N[C@H](Cc2ccccc2)C(=O)O)NC1=O [Example 4, pE-R-c*-R-L-C*-H-K-G-P-f-a-f-OH] (HELM PEPTIDE1{[Glp].R.[dC].R.L.C.H.K.G.P.[dF].[dA].[dF]}$PEPTIDE1,PEPTIDE1,3:R3-6:R3$$$V2.0)
12 | 16 | CCCC[C@H](NC(=O)[C@@H]1CCCN1C(=O)[C@@H]1CSSC[C@H](NC(=O)[C@H](CC(C)C)NC(=O)[C@H](CCCNC(=N)N)NC(=O)[C@@H]2CCCN2C(=O)[C@H](CCCNC(=N)N)NC(=O)[C@@H]2CCC(=O)N2)C(=O)N[C@@H](Cc2c[nH]cn2)C(=O)N[C@@H](CCCCN)C(=O)N1)C(=O)N1CCC[C@H]1C(=O)N[C@@H](Cc1ccccc1)C(=O)O [Example 5, pE-R-P-R-L-C*-H-K-C*-P-Nle-P-F-OH] (HELM PEPTIDE1{[Glp].R.P.R.L.C.H.K.C.P.[Nle].P.F}$PEPTIDE1,PEPTIDE1,6:R3-9:R3$$$V2.0)
13 | 50 | CC(C)C[C@H](NC(=O)[C@H](CCCNC(=N)N)NC(=O)[C@@H]1CCCN1C(=O)[C@H](CCCNC(=N)N)NC(=O)[C@@H]1CCC(=O)N1)C(=O)N[C@@H]1CSSC[C@@H](C(=O)N2CCC[C@H]2C(=O)N[C@H](Cc2ccccc2)C(=O)N[C@H](C)C(=O)N[C@H](Cc2ccccc2)C(=O)O)NC(=O)[C@H](CCCCN)NC(=O)[C@H](Cc2c[nH]cn2)NC1=O [Example 6, pE-R-P-R-L-c*-H-K-C*-P-f-a-f-OH] (HELM PEPTIDE1{[Glp].R.P.R.L.[dC].H.K.C.P.[dF].[dA].[dF]}$PEPTIDE1,PEPTIDE1,6:R3-9:R3$$$V2.0)
14 | 52 | CCCC[C@@H](NC(=O)[C@@H]1CCCN1C(=O)[C@@H]1CSSCC[C@@H](NC(=O)[C@H](CC(C)C)NC(=O)[C@H](CCCNC(=N)N)NC(=O)[C@@H]2CCCN2C(=O)[C@H](CCCNC(=N)N)NC(=O)[C@@H]2CCC(=O)N2)C(=O)N[C@@H](Cc2c[nH]cn2)C(=O)N[C@@H](CCCCN)C(=O)N1)C(=O)N1CCC[C@@H]1C(=O)N[C@H](Cc1ccccc1)C(=O)O [Example 7, pE-R-P-R-L-(D-hC)*-H-K-C*-P-(D-Nle)-p-f-OH] (HELM PEPTIDE1{[Glp].R.P.R.L.[O=C([C@@H](CCS[*:3])N[*:1])[*:2]].H.K.C.P.[CCCC[C@@H](N[*:1])C(=O)[*:2]].[dP].[dF]}$PEPTIDE1,PEPTIDE1,6:R3-9:R3$$$V2.0)

Row | Molecule | half-life [min]
15 | CCCC[C@@H](NC(=O)[C@@H]1CCCN1C(=O)CNC(=O)[C@H](CCCCN)NC(=O)[C@H](Cc1c[nH]cn1)NC(=O)[C@@H]1CSSC[C@H](NC(=O)[C@H](CCCNC(=N)N)NC(=O)[C@@H]2CCC(=O)N2)C(=O)N[C@@H](CCCNC(=N)N)C(=O)N[C@@H](CC(C)C)C(=O)N1)C(=O)NCCc1ccccc1 [Example 3, pE-R-C*-R-L-C*-H-K-G-P-(D-Nle)-NH(Phenethyl)] (HELM PEPTIDE1{[Glp].R.C.R.L.C.H.K.G.P.[CCCC[C@@H](N[*:1])C(=O)[*:2]].[c1ccc(CCN[*:1])cc1]}$PEPTIDE1,PEPTIDE1,3:R3-6:R3$$$V2.0) | 1200
